Data on four molecules can be found in patent US20220185894A1 (F STAR THERAPEUTICS, published 2022).

Positions count from the first letter of the chain named.

Assay [1] has as its target T1, mouse LAG-3 expressed on cells (mouse, UniProt Q61790 24-521).
T1 construct: also called mLAG-3; murine LAG-3 HEK
T1 sequence: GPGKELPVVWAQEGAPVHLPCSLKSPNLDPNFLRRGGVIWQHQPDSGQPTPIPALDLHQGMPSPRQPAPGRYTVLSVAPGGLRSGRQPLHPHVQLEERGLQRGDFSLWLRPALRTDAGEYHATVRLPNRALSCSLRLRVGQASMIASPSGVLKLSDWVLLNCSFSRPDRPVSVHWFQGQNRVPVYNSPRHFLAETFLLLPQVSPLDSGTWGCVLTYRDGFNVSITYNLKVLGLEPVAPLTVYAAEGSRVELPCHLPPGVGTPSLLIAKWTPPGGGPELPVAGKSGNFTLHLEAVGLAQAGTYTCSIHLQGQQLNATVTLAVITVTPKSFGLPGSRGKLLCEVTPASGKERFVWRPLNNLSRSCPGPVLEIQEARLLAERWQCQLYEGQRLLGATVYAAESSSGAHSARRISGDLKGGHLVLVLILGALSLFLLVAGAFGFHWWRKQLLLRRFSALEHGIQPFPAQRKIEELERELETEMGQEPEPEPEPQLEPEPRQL
As to the kind of experiment: flow cytometry on HEK cells expressing murine LAG-3. The procedure: The affinity of the mAb² (all containing the LALA mutations) binding to cell expressed murine LAG-3 or murine PD-L1 was determined using flow cytometry. HEK cells expressing murine LAG-3 or murine PD-L1 grown in DMEM (Life Technologies, 61965-026) containing 10% FBS (Life Technologies, 10270-1-6), 100 μg/ml Hygromycin B (Melford Laboratories Ltd, Z2475), 15 μg/ml Blasticidin (Melford Laboratories Ltd, B1105) and 1 μg/ml Doxycyclin (Sigma, D9891) were detached from tissue culture flasks using cell dissociation buffer (Life Technologies, 13151-014) and seeded in V-bottom 96-well plates (Costar, 3897) at 2×10⁵ cells/well. The plates were centrifuged at 1500 rpm for 3 min at 4° C. to pellet the cells. A dilution series of the mAb² (or control mAb) were incubated with the cells in a 60 μl volume for 1 h at 4° C. The plates were washed and secondary antibody (Anti-human Fc-488, Jackson ImmunoResearch, 109-546-098 for mAb² or Anti-Rat IgG (H+L), Alexa Fluor 488, ThermoFisher, A-11006 for anti-LAG-3 control, C9B7W) was diluted 1:1000 in PBS and 50 μl was added to the cells for 30 min at 4° C. (plates were kept in the dark). The plates were washed then cells were resuspended in 50 μl FACS Cell Fix (BD Bioscience, 340181) for 15 minutes, then washed and resuspended in 100 μl PBS containing 1 μg/ml DAPI (Biotium, 40043). The plates were read using Canto II flow cytometer (BD Bioscience). Dead cells were excluded and the fluorescence in the FITC channel (488 nm/530/30) was measured. The data was fit using log (agonist) vs response in GraphPad Prism Software. The plates were read on a BD FACSCanto II cytometer (BD Biosciences) and the data analysed using FlowJo.
(In general: Flow cytometry measures light scatter and fluorescence of single cells or particles in a stream.)

The target in assay [2] is T2, human FcγRIIIa (R&D Systems, 4325-FC) (human, UniProt P08637 17-208).
T2 construct: Bought recombinant protein
T2 sequence (P08637 17-208 limits assumed): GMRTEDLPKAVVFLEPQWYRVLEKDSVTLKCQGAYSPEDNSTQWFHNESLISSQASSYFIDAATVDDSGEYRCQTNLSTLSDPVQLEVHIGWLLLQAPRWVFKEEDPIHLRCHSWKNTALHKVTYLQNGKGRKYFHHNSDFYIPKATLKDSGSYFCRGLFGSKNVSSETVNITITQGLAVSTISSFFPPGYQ
As to the kind of experiment: SPR, Biacore T200; FcγR immobilised, 200 µg/ml injected. The procedure: (§1) The introduction of the LALA mutation in the CH2 domain of human IgG1 is known to reduce Fc γ receptor binding (Bruhns, P., et al. (2009); and Xu, D. et al. (2000)). […] The human FcγR binding assay was performed on a Biacore T200 instrument (GE Healthcare) using the Fcabs in the mock mAb² format. […] For each immobilized chip a flow cell was left blank for background subtraction. FcγR were immobilized using a concentration of 5 μg/ml in sodium acetate pH5 (ForteBio, 18-1069) and injected at a flow rate of 10 μl/min in 15 second cycles until the required immobilization level was reached.
(§2) The flow cells were regenerated by injecting 10 mM sodium hydroxide (VWR, 28244.262) at a flow rate of 100 μl/min for 30 seconds. The data analysis was performed with BiaEvaluation software version 3.2 RC1 by double referencing against the blank flow cell (without immobilized FcγR) and subtracting a buffer cycle from test mAb².

Assay [3] addresses T3, human FcγRI (R&D Systems, 1257-FC) (human, UniProt P12314 16-288).
T3 construct: Bought recombinant protein
The description is as above. Here is the method:
as §1, §2

The target of assay [4] is T4, human FcγRIIb/c (R&D Systems, 1875-CD) (human, UniProt P31994 46-217).
T4 construct: Bought recombinant protein
T4 sequence (looked up): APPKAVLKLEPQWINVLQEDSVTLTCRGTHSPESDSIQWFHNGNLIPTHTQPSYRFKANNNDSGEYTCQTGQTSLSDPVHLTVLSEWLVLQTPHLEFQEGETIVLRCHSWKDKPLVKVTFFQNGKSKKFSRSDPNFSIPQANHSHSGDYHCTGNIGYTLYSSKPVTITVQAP
As to the kind of experiment: SPR, Biacore T200; FcγR immobilised, 500 µg/ml injected. The procedure: as §1, §2

Assay [5] has as its target T5, human FcγRIIa (R&D Systems, 1330-CD) (human, UniProt P12318 36-218, limits assumed).
T5 construct: Bought recombinant protein
T5 sequence (looked up): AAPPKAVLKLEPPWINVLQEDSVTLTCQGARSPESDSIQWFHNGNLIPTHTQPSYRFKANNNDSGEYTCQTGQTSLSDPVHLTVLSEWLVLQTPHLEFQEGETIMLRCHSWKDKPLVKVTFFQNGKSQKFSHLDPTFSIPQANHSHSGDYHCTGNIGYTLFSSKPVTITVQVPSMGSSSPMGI
Described as above. The procedure: as §1, §2

T3 sequence (P12314 16-288 limits assumed): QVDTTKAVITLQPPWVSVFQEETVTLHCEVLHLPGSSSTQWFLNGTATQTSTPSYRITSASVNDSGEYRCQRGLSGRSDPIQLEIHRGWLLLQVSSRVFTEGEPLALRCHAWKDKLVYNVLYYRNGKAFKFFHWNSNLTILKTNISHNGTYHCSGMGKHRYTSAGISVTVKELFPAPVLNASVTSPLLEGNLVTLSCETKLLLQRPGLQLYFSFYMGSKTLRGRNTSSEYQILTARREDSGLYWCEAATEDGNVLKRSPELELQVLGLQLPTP

B1: anti-mouse LAG-3/FITC mAb2 FS18-7-108-29/4420 comprising LALA mutation (bispecific antibody, human IgG1, kappa, L234A L235A)
heavy: EVKLDETGGGLVQPGRPMKLSCVASGFTFSDYWMNWVRQSPEKGLEWVAQIRNKPYNYETYYSDSVKGRFTISRDDSKSSVYLQMNNLRVEDMGIYYCTGSYYGMDYWGQGTSVTVSSASTKGPSVFPLAPSSKSTSGGTAALGCLVKDYFPEPVTVSWNSGALTSGVHTFPAVLQSSGLYSLSSVVTVPSSSLGTQTYICNVNHKPSNTKVDKKVEPKSCDKTHTCPPCPAPEAAGGPSVFLFPPKPKDTLMISRTPEVTCVVVDVSHEDPEVKFNWYVDGVEVHNAKTKPREEQYNSTYRVVSVLTVLHQDWLNGKEYKCKVSNKALPAPIEKTISKAKGQPREPQVYTLPPSWDEPWGEDVSLTCLVKGFYPSDIVVEWESNGQPENNYKTTPPVLDSDGSFFLYSKLTVPFERWMWPDEFSCSVMHEALHNHYTQKSLSLSPG
light: DVVMTQTPLSLPVSLGDQASISCRSSQSLVHSNGNTYLRWYLQKPGQSPKVLIYKVSNRFSGVPDRFSGSGSGTDFTLKISRVEAEDLGVYFCSQSTHVPWTFGGGTKLEIKRTVAAPSVFIFPPSDEQLKSGTASVVCLLNNFYPREAKVQWKVDNALQSGNSQESVTEQDSKDSTYSLSSTLTLSKADYEKHKVYACEVTHQGLSSPVTKSFNRGEC
notes: also called FS18-29/4420
As usually defined, the EC50 is the concentration that produces a half-maximal response. In assay [1], B1 showed an EC50 of 2.29 nM.

B2: anti-FITC mAb 4420 without LALA mutation (wild-type IgG1) (antibody)
heavy: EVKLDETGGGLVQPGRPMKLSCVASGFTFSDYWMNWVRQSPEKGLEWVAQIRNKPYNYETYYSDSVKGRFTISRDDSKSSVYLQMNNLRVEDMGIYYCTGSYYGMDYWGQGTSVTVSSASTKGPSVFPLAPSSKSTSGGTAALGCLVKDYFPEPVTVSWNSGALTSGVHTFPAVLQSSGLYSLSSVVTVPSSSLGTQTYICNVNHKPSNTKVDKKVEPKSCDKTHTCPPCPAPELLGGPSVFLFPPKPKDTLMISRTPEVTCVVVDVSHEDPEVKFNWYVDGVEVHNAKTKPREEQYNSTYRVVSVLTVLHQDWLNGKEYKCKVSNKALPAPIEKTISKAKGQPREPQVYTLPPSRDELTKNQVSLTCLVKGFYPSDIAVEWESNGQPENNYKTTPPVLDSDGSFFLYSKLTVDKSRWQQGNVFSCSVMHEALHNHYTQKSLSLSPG
light: B1 light
notes: also called mock mAb IgG1; 4420 mAb IgG1
B2: the “binding response at end of association (RU)” value stood at 44 RU in assay [2], 26 RU in assay [3], 17.7 RU in assay [4] and 13 RU in assay [5].

B3: anti-mouse LAG-3/FITC mAb2 FS18-7-108-35/4420 comprising LALA mutation (bispecific antibody, human IgG1, kappa, L234A L235A)
heavy: B1 heavy with V379S
light: B1 light
notes: also called FS18-35/4420
As for B3, in assay [1], a half-maximal effect (EC50) was put at 2.38 nM.

B4: anti-FITC mAb 4420 comprising LALA mutation (antibody, human IgG1, kappa, L234A L235A)
heavy: not shown
light: B1 light
notes: also called mock mAb LALA; 4420 LALA
For B4, the “binding response at end of association (RU)” value was 8 RU in assay [2], 2 RU in assay [3], -9.6 RU in assay [4] and -12.7 RU in assay [5].
